According to publication PMC6516834:

Experiments:
[1] = molecular target: taxol-stabilized microtubules (bovine brain tubulin) (bovine) (UniProt Q6B856); test: single molecule TIRF microscopy (residence time on microtubules); fluorescent complexes in solution on taxol-stabilized microtubules; standard BRB80 buffer; mean residence time, error by bootstrapping
[2] = molecular target: Ndc80-MIND-GFP co-complex (S. cerevisiae) (UniProt P40460); test: single molecule TIRF microscopy (residence time on microtubules); as a1, with free Spc24/Spc25 dimer (wild type or mutant) added in trans: sixtyfold excess over Broccoli-GFP, tenfold excess over Ndc80-MIND-GFP
[3] = molecular target: end-labeled Ndc80 complex Nuf2 S2C Spc25 S154C (cysteine-light, concurrently labeled with Cy3 and Alexa Fluor 647, for single molecule FRET) (S. cerevisiae) (UniProt P40460); test: single molecule three-color TIRF co-localisation; end-labeled Ndc80 complex and GFP-MIND pre-incubated 1:10 for 15 min at room temperature, then tethered by anti-penta-His antibody to lipid-coated coverslips; co-localisation of GFP with Cy3 and Alexa Fluor 647

free Spc24/Spc25 dimer, sequence (Q04477 whole entry): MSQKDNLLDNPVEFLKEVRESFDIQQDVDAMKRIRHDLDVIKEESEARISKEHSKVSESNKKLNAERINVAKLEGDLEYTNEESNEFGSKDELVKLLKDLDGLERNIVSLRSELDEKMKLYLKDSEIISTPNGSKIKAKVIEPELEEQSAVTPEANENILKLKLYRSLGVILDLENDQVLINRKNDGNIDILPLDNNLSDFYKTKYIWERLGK
free Spc24/Spc25 dimer, sequence (P40014 whole entry): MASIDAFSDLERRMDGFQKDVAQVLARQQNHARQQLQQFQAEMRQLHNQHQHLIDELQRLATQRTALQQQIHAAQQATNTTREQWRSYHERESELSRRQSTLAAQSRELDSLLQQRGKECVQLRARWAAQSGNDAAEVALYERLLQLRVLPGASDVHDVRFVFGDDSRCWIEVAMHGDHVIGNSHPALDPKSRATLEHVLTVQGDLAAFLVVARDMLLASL

| mean residence time of the Ndc80-MIND-GFP co-complex on microtubules with a tenfold excess of the binder [2] [s] | Substance | also measured |
| --- | --- | --- |
|  | Ndc80-MIND-GFP co-complex (from UniProt P40460 1-691; P33895 1-451; Q04477 1-213; P40014 1-221; P39731 1-289; P40568 1-576; Q12143 1-216) | mean residence time on microtubules [1]: 9.8 s |
| 4.1 | free Spc24/Spc25 dimer (from UniProt Q04477 1-213; P40014 1-221) (complex) |  |
| 4.2 | Spc24/Spc25 V159D dimer (from UniProt Q04477 1-213; P40014 1-221) (complex) |  |
|  | MIND complex carrying an N-terminal FLAG tag on Nsl1 and a C-terminal GFP on Mtw1 (from UniProt P39731 1-289; Q12143 1-216; P40568 1-576) | percent of the end-labeled Ndc80 complexes in co-complex with MIND (tenfold excess of GFP-MIND) [3]: 33% |
